Experimental findings from patent publication US20200297818A1 (ZEALAND PHARMA A S, published 2020) are described below.

For experiment [1], the target named is human glucagon-like peptide 1 receptor (GLP-1 R) (human, UniProt P43220 24-463). As to the kind of experiment: cell-based or functional assay.
The target in experiment [2] is T1, human GLP-2 receptor (hGLP2-R) (human, UniProt O95838 1-553).
T1 sequence (looked up): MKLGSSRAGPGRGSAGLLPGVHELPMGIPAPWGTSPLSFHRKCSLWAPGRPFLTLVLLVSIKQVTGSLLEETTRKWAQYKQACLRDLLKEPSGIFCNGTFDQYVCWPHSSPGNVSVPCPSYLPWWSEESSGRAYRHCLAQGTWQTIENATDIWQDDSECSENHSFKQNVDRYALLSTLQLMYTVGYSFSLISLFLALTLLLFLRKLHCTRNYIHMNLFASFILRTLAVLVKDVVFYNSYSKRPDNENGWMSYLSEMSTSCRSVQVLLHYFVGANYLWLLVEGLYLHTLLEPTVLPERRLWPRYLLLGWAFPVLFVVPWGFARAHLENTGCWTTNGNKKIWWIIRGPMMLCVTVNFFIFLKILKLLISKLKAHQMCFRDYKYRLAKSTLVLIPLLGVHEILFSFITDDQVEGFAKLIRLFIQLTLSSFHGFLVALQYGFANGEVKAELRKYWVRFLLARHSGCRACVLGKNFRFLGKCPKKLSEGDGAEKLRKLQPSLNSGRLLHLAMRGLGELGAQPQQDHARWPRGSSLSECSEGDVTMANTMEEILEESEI
Put plainly: cell-based or functional assay.

Numbering of substitutions follows the chain as printed.

B1: Compound 16 (peptide)
peptide: HXEGTFTSELATILDXEAARLFIAWLIEHKITD
HELM: PEPTIDE1{H.[Aib].E.G.T.F.T.S.E.L.A.T.I.L.D.K.E.A.A.R.L.F.I.A.W.L.I.E.H.K.I.T.D}|PEPTIDE2{[O=C(O)CCCCCCCCCCCCCCCCC(=O)[*:2]].[gGlu]}$PEPTIDE1,PEPTIDE2,16:R3-2:R2$$$V2.0
SMILES: CC[C@H](C)[C@H](NC(=O)[C@H](Cc1ccccc1)NC(=O)[C@H](CC(C)C)NC(=O)[C@H](CCCNC(=N)N)NC(=O)[C@H](C)NC(=O)[C@H](C)NC(=O)[C@H](CCC(=O)O)NC(=O)[C@H](CCCCNC(=O)CC[C@H](NC(=O)CCCCCCCCCCCCCCCCC(=O)O)C(=O)O)NC(=O)[C@H](CC(=O)O)NC(=O)[C@H](CC(C)C)NC(=O)[C@@H](NC(=O)[C@@H](NC(=O)[C@H](C)NC(=O)[C@H](CC(C)C)NC(=O)[C@H](CCC(=O)O)NC(=O)[C@H](CO)NC(=O)[C@@H](NC(=O)[C@H](Cc1ccccc1)NC(=O)[C@@H](NC(=O)CNC(=O)[C@H](CCC(=O)O)NC(=O)C(C)(C)NC(=O)[C@@H](N)Cc1c[nH]cn1)[C@@H](C)O)[C@@H](C)O)[C@@H](C)O)[C@@H](C)CC)C(=O)N[C@@H](C)C(=O)N[C@@H](Cc1c[nH]c2ccccc12)C(=O)N[C@@H](CC(C)C)C(=O)N[C@H](C(=O)N[C@@H](CCC(=O)O)C(=O)N[C@@H](Cc1c[nH]cn1)C(=O)N[C@@H](CCCCN)C(=O)N[C@H](C(=O)N[C@H](C(=O)N[C@@H](CC(=O)O)C(=O)O)[C@@H](C)O)[C@@H](C)CC)[C@@H](C)CC
B1: in experiment [1], the “EC50 GLP-1 (nM); cAMP response” value stood at 0.073 nM. In experiment [2], the “EC50 GLP-2 (nM); cAMP response” value turned out to be 0.68 nM.

B2: Compound 18 (peptide)
peptide: B1 peptide with T5S, E17Q, L21D, E28Q
HELM: PEPTIDE1{H.[Aib].E.G.S.F.T.S.E.L.A.T.I.L.D.K.Q.A.A.R.D.F.I.A.W.L.I.Q.H.K.I.T.D}|PEPTIDE2{[O=C(O)CCCCCCCCCCCCCCCCC(=O)[*:2]].[gGlu]}$PEPTIDE1,PEPTIDE2,16:R3-2:R2$$$V2.0
SMILES: CC[C@H](C)[C@H](NC(=O)[C@H](Cc1ccccc1)NC(=O)[C@H](CC(=O)O)NC(=O)[C@H](CCCNC(=N)N)NC(=O)[C@H](C)NC(=O)[C@H](C)NC(=O)[C@H](CCC(N)=O)NC(=O)[C@H](CCCCNC(=O)CC[C@H](NC(=O)CCCCCCCCCCCCCCCCC(=O)O)C(=O)O)NC(=O)[C@H](CC(=O)O)NC(=O)[C@H](CC(C)C)NC(=O)[C@@H](NC(=O)[C@@H](NC(=O)[C@H](C)NC(=O)[C@H](CC(C)C)NC(=O)[C@H](CCC(=O)O)NC(=O)[C@H](CO)NC(=O)[C@@H](NC(=O)[C@H](Cc1ccccc1)NC(=O)[C@H](CO)NC(=O)CNC(=O)[C@H](CCC(=O)O)NC(=O)C(C)(C)NC(=O)[C@@H](N)Cc1c[nH]cn1)[C@@H](C)O)[C@@H](C)O)[C@@H](C)CC)C(=O)N[C@@H](C)C(=O)N[C@@H](Cc1c[nH]c2ccccc12)C(=O)N[C@@H](CC(C)C)C(=O)N[C@H](C(=O)N[C@@H](CCC(N)=O)C(=O)N[C@@H](Cc1c[nH]cn1)C(=O)N[C@@H](CCCCN)C(=O)N[C@H](C(=O)N[C@H](C(=O)N[C@@H](CC(=O)O)C(=O)O)[C@@H](C)O)[C@@H](C)CC)[C@@H](C)CC
As to B2, the “EC50 GLP-1 (nM); cAMP response” value in experiment [1] came out at 0.19 nM. Moreover, the “EC50 GLP-2 (nM); cAMP response” value in experiment [2] turned out to be 0.21 nM.

B3: Compound 20 (peptide)
peptide: B1 peptide with T7S, E17Q, L21D
HELM: PEPTIDE1{H.[Aib].E.G.T.F.S.S.E.L.A.T.I.L.D.K.Q.A.A.R.D.F.I.A.W.L.I.E.H.K.I.T.D}|PEPTIDE2{[O=C(O)CCCCCCCCCCCCCCCCC(=O)[*:2]].[gGlu]}$PEPTIDE1,PEPTIDE2,16:R3-2:R2$$$V2.0
SMILES: CC[C@H](C)[C@H](NC(=O)[C@H](Cc1ccccc1)NC(=O)[C@H](CC(=O)O)NC(=O)[C@H](CCCNC(=N)N)NC(=O)[C@H](C)NC(=O)[C@H](C)NC(=O)[C@H](CCC(N)=O)NC(=O)[C@H](CCCCNC(=O)CC[C@H](NC(=O)CCCCCCCCCCCCCCCCC(=O)O)C(=O)O)NC(=O)[C@H](CC(=O)O)NC(=O)[C@H](CC(C)C)NC(=O)[C@@H](NC(=O)[C@@H](NC(=O)[C@H](C)NC(=O)[C@H](CC(C)C)NC(=O)[C@H](CCC(=O)O)NC(=O)[C@H](CO)NC(=O)[C@H](CO)NC(=O)[C@H](Cc1ccccc1)NC(=O)[C@@H](NC(=O)CNC(=O)[C@H](CCC(=O)O)NC(=O)C(C)(C)NC(=O)[C@@H](N)Cc1c[nH]cn1)[C@@H](C)O)[C@@H](C)O)[C@@H](C)CC)C(=O)N[C@@H](C)C(=O)N[C@@H](Cc1c[nH]c2ccccc12)C(=O)N[C@@H](CC(C)C)C(=O)N[C@H](C(=O)N[C@@H](CCC(=O)O)C(=O)N[C@@H](Cc1c[nH]cn1)C(=O)N[C@@H](CCCCN)C(=O)N[C@H](C(=O)N[C@H](C(=O)N[C@@H](CC(=O)O)C(=O)O)[C@@H](C)O)[C@@H](C)CC)[C@@H](C)CC
Consider B3, for which the “EC50 GLP-1 (nM); cAMP response” value in experiment [1] stood at 0.55 nM. In experiment [2], the “EC50 GLP-2 (nM); cAMP response” value turned out to be 0.37 nM.

B4: Compound 19 (peptide)
peptide: B1 peptide with E17Q, L21D, E28Q
HELM: PEPTIDE1{H.[Aib].E.G.T.F.T.S.E.L.A.T.I.L.D.K.Q.A.A.R.D.F.I.A.W.L.I.Q.H.K.I.T.D}|PEPTIDE2{[O=C(O)CCCCCCCCCCCCCCCCC(=O)[*:2]].[gGlu]}$PEPTIDE1,PEPTIDE2,16:R3-2:R2$$$V2.0
SMILES: CC[C@H](C)[C@H](NC(=O)[C@H](Cc1ccccc1)NC(=O)[C@H](CC(=O)O)NC(=O)[C@H](CCCNC(=N)N)NC(=O)[C@H](C)NC(=O)[C@H](C)NC(=O)[C@H](CCC(N)=O)NC(=O)[C@H](CCCCNC(=O)CC[C@H](NC(=O)CCCCCCCCCCCCCCCCC(=O)O)C(=O)O)NC(=O)[C@H](CC(=O)O)NC(=O)[C@H](CC(C)C)NC(=O)[C@@H](NC(=O)[C@@H](NC(=O)[C@H](C)NC(=O)[C@H](CC(C)C)NC(=O)[C@H](CCC(=O)O)NC(=O)[C@H](CO)NC(=O)[C@@H](NC(=O)[C@H](Cc1ccccc1)NC(=O)[C@@H](NC(=O)CNC(=O)[C@H](CCC(=O)O)NC(=O)C(C)(C)NC(=O)[C@@H](N)Cc1c[nH]cn1)[C@@H](C)O)[C@@H](C)O)[C@@H](C)O)[C@@H](C)CC)C(=O)N[C@@H](C)C(=O)N[C@@H](Cc1c[nH]c2ccccc12)C(=O)N[C@@H](CC(C)C)C(=O)N[C@H](C(=O)N[C@@H](CCC(N)=O)C(=O)N[C@@H](Cc1c[nH]cn1)C(=O)N[C@@H](CCCCN)C(=O)N[C@H](C(=O)N[C@H](C(=O)N[C@@H](CC(=O)O)C(=O)O)[C@@H](C)O)[C@@H](C)CC)[C@@H](C)CC
On to B4, for which the “EC50 GLP-1 (nM); cAMP response” value in experiment [1] amounted to 0.066 nM. Also, in experiment [2], the “EC50 GLP-2 (nM); cAMP response” value came to 0.23 nM.

B5: Compound 17 (peptide)
peptide: B1 peptide with T7S, E17Q, L21D, E28Q
HELM: PEPTIDE1{H.[Aib].E.G.T.F.S.S.E.L.A.T.I.L.D.K.Q.A.A.R.D.F.I.A.W.L.I.Q.H.K.I.T.D}|PEPTIDE2{[O=C(O)CCCCCCCCCCCCCCCCC(=O)[*:2]].[gGlu]}$PEPTIDE1,PEPTIDE2,16:R3-2:R2$$$V2.0
SMILES: CC[C@H](C)[C@H](NC(=O)[C@H](Cc1ccccc1)NC(=O)[C@H](CC(=O)O)NC(=O)[C@H](CCCNC(=N)N)NC(=O)[C@H](C)NC(=O)[C@H](C)NC(=O)[C@H](CCC(N)=O)NC(=O)[C@H](CCCCNC(=O)CC[C@H](NC(=O)CCCCCCCCCCCCCCCCC(=O)O)C(=O)O)NC(=O)[C@H](CC(=O)O)NC(=O)[C@H](CC(C)C)NC(=O)[C@@H](NC(=O)[C@@H](NC(=O)[C@H](C)NC(=O)[C@H](CC(C)C)NC(=O)[C@H](CCC(=O)O)NC(=O)[C@H](CO)NC(=O)[C@H](CO)NC(=O)[C@H](Cc1ccccc1)NC(=O)[C@@H](NC(=O)CNC(=O)[C@H](CCC(=O)O)NC(=O)C(C)(C)NC(=O)[C@@H](N)Cc1c[nH]cn1)[C@@H](C)O)[C@@H](C)O)[C@@H](C)CC)C(=O)N[C@@H](C)C(=O)N[C@@H](Cc1c[nH]c2ccccc12)C(=O)N[C@@H](CC(C)C)C(=O)N[C@H](C(=O)N[C@@H](CCC(N)=O)C(=O)N[C@@H](Cc1c[nH]cn1)C(=O)N[C@@H](CCCCN)C(=O)N[C@H](C(=O)N[C@H](C(=O)N[C@@H](CC(=O)O)C(=O)O)[C@@H](C)O)[C@@H](C)CC)[C@@H](C)CC
Regarding B5, the “EC50 GLP-1 (nM); cAMP response” value in experiment [1] stood at 0.9 nM. In addition, the “EC50 GLP-2 (nM); cAMP response” value in experiment [2] stood at 0.33 nM.
